Our source for the Km, kcat and stoichiometry N values is article PMC6783550, “Molecular mechanism of azoxy bond formation for azoxymycins biosynthesis” (Nature Communications, 2019).

For one series, the system named is Nc1ccc(/C=C/C(=O)O)cc1. Put plainly: purified protein. As to conditions: 30 °C, general assay: 1 mM NADH, 10 μM PMS, O2, 20 mM HEPES pH 7.
The target in series [1] is AzoC (Streptomyces chattanoogensis). Put plainly: native gel or EMSA + SEC; Native-PAGE and size-exclusion chromatography of purified recombinant AzoC; SEC on Sephacryl S-300, AKTA Purifier, 4 °C, 20 mM Tris pH 8.0, 250 mM NaCl, 1 mL/min, markers IgG (150 kDa) and BSA (67 kDa); self-association, homodimer. For orientation: A gel shift assay detects complexes by their altered migration in electrophoresis.

On to AzoC (Streptomyces chattanoogensis), for which, in the series on Nc1ccc(/C=C/C(=O)O)cc1, the Michaelis-Menten constant (Km) was found to be 4.24 ± 0.9 µM and the kcat came to 42.03 ± 4.19 min⁻¹.

In the case of AzoC (enzyme), the stoichiometry N in series [1] is 2.

As usually defined, the Km is the concentration of substrate that gives half-maximal velocity. What is called kcat is the number of substrate molecules converted per active site and unit of time at saturation. One may read the stoichiometry N as the number of molecules, sites or subunits per partner or assembly.
